# According to US20030073142A1 (published 2003):
# Molecular target: human MHC-I HLA-A2.1 expressed on RMA-S-A2.1 cells (murine TAP-deficient RMA-S cells engineered to express … (human, UniProt A*02:01))
# Assay: cell-based or functional assay
row,Binder,"HLA-A2.1-specific fluorescence intensity (FACS, surface HLA-A2.1 on TAP-deficient RMA-S-A2.1 cells after overnight incubation with 50 micromoles per liter peptide) [log]"
1,"TQSPSVFPL [test peptide number 539.10 (human IgE CH1 nonamer, Thr Gln Ser Pro Ser Val Phe Pro Leu)]",1
2,"LLTVSGAWA [test peptide number 539.8 (human IgE CH1 nonamer, Leu Leu Thr Val Ser Gly Ala Trp Ala)]",1
3,"WLSDRTYTC [test peptide number 539.11 (human IgE CH2 nonamer, Trp Leu Ser Asp Arg Thr Tyr Thr Cys)]",1

# Further lines, results first:
row,"HLA-A2.1-specific fluorescence intensity (FACS, surface HLA-A2.1 on TAP-deficient RMA-S-A2.1 cells after overnight incubation with 50 micromoles per liter peptide) [log]",Binder
1,1,"WVDNKTFSV [test peptide number 539.12 (human IgE CH1 nonamer, Trp Val Asp Asn Lys Thr Phe Ser Val)]"
2,1,"QLPDARHST [test peptide number 539.9 (human IgE CH4 nonamer, Gln Leu Pro Asp Ala Arg His Ser Thr)]"
